Values of other authors in US20220280439A1, “METHODS FOR LOWERING THE INFECTION RATE OF VIRUSES” (Finncure Oy, priority 2020, published 2022).

Biological target: ACE2 (Homo sapiens, UniProt Q9BYF1)
Details: simulation, ref [8]; for binding affinity towards the ACE2 receptor: compared with hexapeptide YKYRYL

Chain of ACE2 (Q9BYF1 18-805): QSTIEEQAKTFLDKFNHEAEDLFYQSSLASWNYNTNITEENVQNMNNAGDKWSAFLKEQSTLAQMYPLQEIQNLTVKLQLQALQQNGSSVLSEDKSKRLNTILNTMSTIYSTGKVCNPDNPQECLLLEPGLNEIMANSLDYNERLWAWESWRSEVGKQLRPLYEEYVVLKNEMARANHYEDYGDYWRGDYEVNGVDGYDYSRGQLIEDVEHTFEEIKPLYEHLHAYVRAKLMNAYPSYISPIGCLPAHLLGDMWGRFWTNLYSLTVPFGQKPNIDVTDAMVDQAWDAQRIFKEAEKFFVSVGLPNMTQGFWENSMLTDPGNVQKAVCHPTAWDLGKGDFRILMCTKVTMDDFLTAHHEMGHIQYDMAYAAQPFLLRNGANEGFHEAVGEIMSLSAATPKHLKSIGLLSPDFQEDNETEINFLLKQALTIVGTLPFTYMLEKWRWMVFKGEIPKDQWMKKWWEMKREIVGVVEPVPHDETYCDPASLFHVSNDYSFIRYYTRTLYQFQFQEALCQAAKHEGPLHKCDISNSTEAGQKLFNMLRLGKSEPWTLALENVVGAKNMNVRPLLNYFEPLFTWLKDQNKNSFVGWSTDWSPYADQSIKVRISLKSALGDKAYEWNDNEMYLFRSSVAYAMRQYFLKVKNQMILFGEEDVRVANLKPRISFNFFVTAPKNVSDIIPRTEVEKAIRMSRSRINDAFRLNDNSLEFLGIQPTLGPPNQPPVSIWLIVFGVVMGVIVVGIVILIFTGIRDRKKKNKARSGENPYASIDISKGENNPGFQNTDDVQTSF

YKYNYI (Potential alternative synthetic hexapeptide variant) [alternative synthetic hexapeptide variant from simulation]
binding affinity towards the ACE2 receptor: even stronger binding affinity

YKYNYL (Potential alternative synthetic hexapeptide variant) [alternative synthetic hexapeptide variant from simulation]
binding affinity towards the ACE2 receptor: even stronger binding affinity

YKYRYL
Kd (binding to ACE2, estimated): 46 µM
